In patent US20170298096A1 (CANIMGUIDE THERAPEUTICS, published 2017):

T1: His-tagged P3028 peptide (PGE73) (human)
T1 construct: albumin-derived peptide, in solution at 0.5 ug/mL; not shown: His-tag
T1 peptide: VFDEFKPLVEEPQNLIK

T2: His-tagged P3028 peptide (PGE73) (human)
T2 construct: also called His-tag-P3028; not shown: His-tag
T2 peptide: VFDEFKPLVEEPQNLIK


Biological target: T1, His-tagged P3028 peptide (PGE73)
Experiment: PEPSCAN ELISA, peptide on card
Method: (§1) After washing, the peroxidase substrate 2,2′-azine-di-3-ethylbenzthiazoline sulfonate (ABTS) and 2 μL of 3% H2O2 were added. The binding capacity of the mAb was measured as a color development at 405 nm (optical density, OD405). The color development was quantified with a charge-coupled device (CCD)—camera and an image processing system.
(§2) The OD405-values obtained by a CCD-camera was considered as raw data values (“rampo values,” “rampo units,” or “rampo scores”). […] First the CCD-camera made a picture of the card before peroxidase coloring and then again a picture after the peroxidase coloring. […] These values were copied into an excel file and labeled as a raw data file. One follow-up manipulation was allowed. Sometimes a well can contain an air-bubble resulting in a false-positive value. If manual inspection of the cards detect an air-bubble the value are set to 0 for that well.

| Binder | RAMPO Score |
| --- | --- |
| KKLDTFFVKLSLPTER [SEQ ID NO: 369 KKLDTFFVKLSLPTER] | 696 |
| KKLDTFFVKLSLQTER [SEQ ID NO: 370 KKLDTFFVKLSLQTER] | 1140 |
| KKLDTFFVKLSLRTER [SEQ ID NO: 371 KKLDTFFVKLSLRTER] | 502 |
| KKLDTFFVKLSLSTER [SEQ ID NO: 372 KKLDTFFVKLSLSTER] | 635 |
| KKLDTFFVKLSLTTER [SEQ ID NO: 373 KKLDTFFVKLSLTTER] | 494 |
| KKLDTFFVKLSLVTER [SEQ ID NO: 374 KKLDTFFVKLSLVTER] | 446 |
| KKLDTFFVKLSLWTER [SEQ ID NO: 375 KKLDTFFVKLSLWTER] | 430 |
| KKLDTFFVKLSLFFER [SEQ ID NO: 376 KKLDTFFVKLSLFFER] | 348 |
| KKLDTFFVKLSLFGER [SEQ ID NO: 377 KKLDTFFVKLSLFGER] | 343 |
| KKLDTFFVKLSLFHER [SEQ ID NO: 378 KKLDTFFVKLSLFHER] | 463 |
| KKLDTFFVKLSLFIER [SEQ ID NO: 379 KKLDTFFVKLSLFIER] | 375 |
| KKLDTFFVKLSLFLER [SEQ ID NO: 380 KKLDTFFVKLSLFLER] | 360 |
| KKLDTFFVKLSLFMER [SEQ ID NO: 381 KKLDTFFVKLSLFMER] | 501 |
| KKLDTFFVKLSLFNER [SEQ ID NO: 382 KKLDTFFVKLSLFNER] | 599 |
| KKLDTFFVKLSLFPER [SEQ ID NO: 383 KKLDTFFVKLSLFPER] | 551 |
| KKLDTFFVKLSLFSER [SEQ ID NO: 384 KKLDTFFVKLSLFSER] | 369 |
| KKLDTFFVKLSLFVER [SEQ ID NO: 385 KKLDTFFVKLSLFVER] | 380 |
| KKLDTFFVKLSLFWER [SEQ ID NO: 386 KKLDTFFVKLSLFWER] | 374 |
| KKLDTFFVKLSLFTDR [SEQ ID NO: 387 KKLDTFFVKLSLFTDR] | 404 |
| KKLDTFFVKLSLFTEF [SEQ ID NO: 388 KKLDTFFVKLSLFTEF] | 297 |
| KKLDTFFVKLSLFTEK [SEQ ID NO: 389 KKLDTFFVKLSLFTEK] | 291 |
| KKLDTFFVKLSLFTEN [SEQ ID NO: 390 KKLDTFFVKLSLFTEN] | 311 |
| KKLDTFFVKLSLFTET [SEQ ID NO: 392 KKLDTFFVKLSLFTET] | 292 |
| KKLDTFFVKLSLFTEY [SEQ ID NO: 393 KKLDTFFVKLSLFTEY] | 311 |

Biological target: T2, His-tagged P3028 peptide (PGE73)
Experiment: PEPSCAN ELISA; peptide on card, His-tagged P3028 in solution;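 note: bound protein detected by peroxidase colour with ABTS substrate, imaged on the peptide card by CCD camera at 405 nm, rampo units being raw OD405 readings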
Method: as §1, §2

| Binder | RAMPO Score [rampo units] |
| --- | --- |
| KKLDTFFVKLSLFTEP (P28R variant on PEPSCAN card) [SEQ ID NO: 533] | 234 |
| KKLDTFFVKLSLFTEA (P28R variant on PEPSCAN card) [SEQ ID NO: 538] | 226 |
| KKLDTFFVKLSLFTEG (P28R variant on PEPSCAN card) [SEQ ID NO: 543] | 218 |
| KKLDTFFVKLSLFTEL (P28R variant on PEPSCAN card) [SEQ ID NO: 544] | 217 |
| KKLDTFFVKLSLFTEW (P28R variant on PEPSCAN card) [SEQ ID NO: 551] | 202 |
| KKLDTFFVKLSLFTES (P28R variant on PEPSCAN card) [SEQ ID NO: 557] | 184 |
| KKLDTFFVKLSLFTEI (P28R variant on PEPSCAN card) [SEQ ID NO: 558] | 176 |
| KKLDTFFVKLSLFTEC (P28R variant on PEPSCAN card) [SEQ ID NO: 559] | 175 |
| KKLDTFFVKLSLFTED (P28R variant on PEPSCAN card) [SEQ ID NO: 572] | 133 |
| KKLDTFFVKLSLFTEQ (P28R variant on PEPSCAN card) [SEQ ID NO: 573] | 133 |
| KKLDTFFVKLSLFTEE (P28R variant on PEPSCAN card) [SEQ ID NO: 577] | 107 |
| KKLDTFFVYLSLFTER (P28R variant on PEPSCAN card) [SEQ ID NO: 552] | 198 |
| KKLDTFFVGLSLFTER (P28R variant on PEPSCAN card) [SEQ ID NO: 97] | 188 |
| KKLDTFFVGLSLFTER (P28R variant on PEPSCAN card) [SEQ ID NO: 98] | 188 |
| KKLDTFFVPLSLFTER (P28R variant on PEPSCAN card) [SEQ ID NO: 534] | 233 |
| KKLDTFFVCLSLFTER (P28R variant on PEPSCAN card) [SEQ ID NO: 541] | 220 |
| KKLDTFFVALSLFTER (P28R variant on PEPSCAN card) [SEQ ID NO: 554] | 191 |
| KKLDTFFVILSLFTER (P28R variant on PEPSCAN card) [SEQ ID NO: 555] | 190 |
| KKLDTFFVFLSLFTER (P28R variant on PEPSCAN card) [SEQ ID NO: 560] | 174 |
| KKLDTFFVLLSLFTER (P28R variant on PEPSCAN card) [SEQ ID NO: 562] | 166 |
| KKLDTFFVDLSLFTER (P28R variant on PEPSCAN card) [SEQ ID NO: 569] | 149 |
| KKLDTFFVKLSLFTFR (P28R variant on PEPSCAN card) [SEQ ID NO: 571] | 137 |
| KKLDTFFVKLSLFTGR (P28R variant on PEPSCAN card) [SEQ ID NO: 101] | 233 |
| KKLDTFFVKLSLFTWR (P28R variant on PEPSCAN card) [SEQ ID NO: 539] | 226 |
| KKLDTFFVKLSLFTCR (P28R variant on PEPSCAN card) [SEQ ID NO: 556] | 185 |
| KKLDTFFVKLSLFTAR (P28R variant on PEPSCAN card) [SEQ ID NO: 561] | 174 |
| KKLDTFFVKLSLFTSR (P28R variant on PEPSCAN card) [SEQ ID NO: 563] | 165 |
| KKLDTFFVKLSLFTIR (P28R variant on PEPSCAN card) [SEQ ID NO: 564] | 163 |
